T1: HEK293/mCACNG1 (Mus musculus, UniProt O70578)
T1 construct: mouse CACNG1 (mCACNG1); expressed in transfected cells
T1 sequence (O70578 1-223): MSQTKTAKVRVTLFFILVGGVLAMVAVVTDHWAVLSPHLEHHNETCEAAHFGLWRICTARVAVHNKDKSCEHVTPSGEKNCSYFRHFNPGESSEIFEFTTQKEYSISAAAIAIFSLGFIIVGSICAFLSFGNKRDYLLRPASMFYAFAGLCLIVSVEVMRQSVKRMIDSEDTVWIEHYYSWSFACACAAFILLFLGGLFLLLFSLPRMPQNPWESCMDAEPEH

B1: H1M31941N (antibody)
heavy: QVQLVQSGAEVKKPGASVKVSCKASGYAFTTYGITWVRQAPGQGLEWMGWISAYNGNTNYAEKVQGRFTMTTDTSTNTAYMELRSLRSDDTAVYFCARKGHYGSGTYYNPFGFDFWGQGTMVTVSSAKTTPPSVYPLAPGSAAQTNSMVTLGCLVKGYFPEPVTVTWNSGSLSSGVHTFPAVLQSDLYTLSSSVTVPSSTWPSETVTCNVAHPASSTKVDKKIVPRDCGCKPCICTVPEVSSVFIFPPKPKDVLTITLTPKVTCVVVDISKDDPEVQFSWFVDDVEVHTAQTQPREEQFNSTFRSVSELPIMHQDWLNGKEFKCRVNSAAFPAPIEKTISKTKGRPKAPQVYTIPPPKEQMAKDKVSLTCMITDFFPEDITVEWQWNGQPAENYKNTQPIMDTDGSYFVYSKLNVQKSNWEAGNTFTCSVLHEGLHNHHTEKSLSHSPGK
light: EIMLMQSPGTLSLSPGERATLSCRASQSVSSSYLAWYQQKPGQAPRLLIYGASSRATDIPDRFSGSGSGTDFTLTISRLEPEDFAVYFCQQYYGSPWTFGQGTKVEIKRADAAPTVSIFPPSSEQLTSGGASVVCFLNNFYPKDINVKWKIDGSERQNGVLNSWTDQDSKDSTYSMSSTLTLTKDEYERHNSYTCEATHKTSTSPIVKSFNRGEC
B2: H2aM31941N: anti-CACNG1 antibody; HCVR SEQ ID NO: 25, LCVR SEQ ID NO: 29, HC SEQ ID NO: 151, LC SEQ ID NO: 152 (antibody)
heavy: B1 heavy
light: B1 light

What was measured:
[1] = system: wildtype or CACNG1 knockout myofibers; experiment: Antibody binding to single myofibers ex vivo; parameters: species or system mouse; conditions: 100 nM antibody, 30 minutes; FIG. 2
Description: (§1) Single myofibers were isolated from either wildtype mice, mice that were homozygous for the deletion of CACNG1 (referred to as CACNG1 knockout mice), or mice that were homozygous for the expression of human CACNG1 in place of mouse CACNG1 (referred to as CACNG1^Hu/Hu). The gastrocnemius muscle was removed, collagenase digested, and single myofibers were isolated, washed, and incubated overnight at 37° C. at 5% CO2, in DMEM+10% horse serum. Following overnight incubation, single myofibers were incubated with 100 nM of each CACNG1 antibody or an isotype control antibody for 30 minutes. Myofibers were then washed twice in DMEM+10% horse serum, and subsequently incubated with 10 μg/mL of fluorescent-conjugated secondary antibodies for 30 minutes, washed twice in DMEM+10% horse serum, and then fixed with 4% paraformaldehyde (PFA) for 15 minutes at room temperature. Single fibers were then washed twice with PBS, stained with Hoechst for 5 minutes, washed once more with PBS, then transferred to microscope slides, cover slipped, and imaged using a Zeiss LSM 710 confocal microscope.

[2] = system: CACNG1^Hu/Hu myofibers; experiment: Antibody binding to single myofibers ex vivo; parameters: species or system mouse; conditions: 100 nM antibody, 30 minutes; FIG. 2
Description: as §1

[3] = system: HEK293; experiment: Indirect (secondary) cell killing assay; type: cell-based, human; conditions: Table 11-3; maximum % kill
From the text: (§2) To test the ability of anti-CACNG1 antibodies described herein to bind, internalize, and deliver payloads, cell binding and indirect cell killing assays were developed with primary human skeletal myoblasts (Cook Myosite Cat #SkMDC SK-1111), C2C12 mouse myoblasts (ATCC Cat #CRL-1772), and HEK293 cells engineered to express human and mouse CACNG1 (HEK293/hCACNG1 and HEK293/mCACNG1, respectively). To generate the HEK293/hCACNG1 and HEK293/mCACNG1 cell lines, FuGEGE 6 (Promega, Cat #E2691/5/3) was used to transfect HEK293HZ cells with a human CACNG1 (hCACNG1; amino acid M1-H222, Accession #NP_000718.1) or mouse CACNG1 (mCACNG1; amino acid M1-H223, Accession #NP_031608.1) expression vector. HEK293HZ is a highly transfectable subclone of HEK293 cells (1) authenticated via STIR (short tandem repeat) profiling to be 81% identical to HEK293 cells sourced from ATCC). […]
An indirect cell killing assay was used to assess the ability of anti-CACNG1 antibodies to internalize and deliver payloads into cells. In vitro cytotoxicity of the anti-CACNG1 antibodies alone or in combination with Fab anti-human Fc or Fab anti-mouse Fc secondary antibodies conjugated to Duocarmycin DM (Moradec, Cat #AH-202-DD-50 or Cat #AM-202-DD-50) were evaluated using the CellTiter-Glo 2.0 Assay Kit (Promega, Cat #G9243), in which the quantity of ATP present is used to determine the number of viable cells in culture. […]

[4] = target: T1, HEK293/mCACNG1; experiment: High content imaging-based cell binding assay; conditions: Table 11-1, 293/mCACNG1; NB = no binding detected
From the text: as §2, with “ATCC). The HEK293HZ cell line was maintained in DMEM+10% FBS+1% L-glutamine/penicillin/streptomycin, while HEK293/hCACNG1 and HEK293/mCACNG1 cell lines were maintained in DMEM+10% FBS+1% L-glutamine/penicillin/streptomycin+500 ug/mL G418.” for “ATCC).”
(§3) Relative binding of anti-CACNG1 antibodies was assessed across the entire panel of cell lines via imaging analysis. […] Images were acquired with a 10× objective on the Opera Phenix (Perkin Elmer) and relative fluorescence units (RFU) was determined using Harmony software (Perkin Elmer).

[5] = system: C2C12 mouse myotubes; experiment: High content imaging-based cell binding assay; conditions: Table 11-1, C2C12; NB = no binding detected
From the text: as §2, with “ATCC). The HEK293HZ cell line was maintained in DMEM+10% FBS+1% L-glutamine/penicillin/streptomycin, while HEK293/hCACNG1 and HEK293/mCACNG1 cell lines were maintained in DMEM+10% FBS+1% L-glutamine/penicillin/streptomycin+500 ug/mL G418.” for “ATCC).”
as §3

[6] = system: HEK293 Hz; experiment: High content imaging-based cell binding assay; parameters: species or system human; conditions: Table 11-1, HEK293 Hz; NB = no binding detected
From the text: as §2, with “ATCC). The HEK293HZ cell line was maintained in DMEM+10% FBS+1% L-glutamine/penicillin/streptomycin, while HEK293/hCACNG1 and HEK293/mCACNG1 cell lines were maintained in DMEM+10% FBS+1% L-glutamine/penicillin/streptomycin+500 ug/mL G418.” for “ATCC).”
as §3

[7] = target: T2, human CACNG1 nanodisc (Homo sapiens, UniProt Q06432); experiment: Biacore binding kinetics of anti-CACNG1 antibodies to surface-captured human CACNG1 nanodisc; conditions: 25° C., 1:1 binding model
T2 construct: PΔΔCt RE (C); Flag (C)
T2 sequence (Q06432 whole entry): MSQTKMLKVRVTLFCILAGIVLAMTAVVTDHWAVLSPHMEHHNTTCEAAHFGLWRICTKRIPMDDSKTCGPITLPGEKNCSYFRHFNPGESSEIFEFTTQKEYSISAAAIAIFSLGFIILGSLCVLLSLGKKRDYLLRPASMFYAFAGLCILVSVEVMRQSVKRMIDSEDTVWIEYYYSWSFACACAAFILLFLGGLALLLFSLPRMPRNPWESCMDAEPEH
Description: This Example relates to evaluation of binding kinetics of purified anti-CACNG1 antibodies described herein to a human CACNG1 nanodisc capture surface using real-time surface plasmon resonance biosensor technology with a Biacore T200 instrument.
Equilibrium dissociation constants (KD values) for nanodisc embedded human CACNG1 expressed with a C-terminal […] tag (human CACNG1 nanodisc; concentration 0.82 mg/ml) binding to purified anti-CACNG1 antibodies were determined using a real-time surface plasmon resonance biosensor technology with a Biacore T200 instrument. The CM5 Biacore sensor surface was derivatized by amine coupling with a monoclonal mouse anti-His antibody (Cytiva; Marlborough, MA). All Biacore binding studies were performed in a buffer composed of 0.01M HEPES, 0.15M NaCl, 1 mM CaCl2, 0.5 mM MgCl2, pH 7.4 (HBS-N++ running buffer). […]
The specific SPR-Biacore sensorgrams were obtained by a double referencing procedure. […] Kinetic association (ka) and dissociation […] rate constants were determined by fitting the real-time sensorgrams to a 1:1 binding model using Scrubber v2.0c curve fitting software. Binding dissociation equilibrium constants (KD) and dissociative half-lives (t %) were calculated from the kinetic rate constants as: […]

Molecule	binding to wildtype or CACNG1 knockout myofibers [1]	binding to CACNG1^Hu/Hu myofibers ex vivo [2]	% KILL [3]	EC50 [4]	EC50 [5]	EC50 [6]	ka [7]	kd [7]
B1	did not bind	demonstrated binding	0.0%	> 100 nM	> 100 nM	> 100 nM		
B2							342000 M⁻¹ s⁻¹	0.000406 s⁻¹

From patent US20240182561A1, “CALCIUM VOLTAGE-GATED CHANNEL AUXILIARY SUBUNIT GAMMA 1 (CACNG1) BINDING PROTEINS AND CACNG1-MEDIATED DELIVERY TO SKELETAL MUSCLE” (Regeneron Pharmaceuticals, Inc., priority 2022, published 2024)
